Results taken from publication PMC6544321, “Structural insights into histone chaperone Chz1-mediated H2A.Z recognition and histone replacement” (PLoS Biology, 2019).

B1: yeast single chain H2A-H2B (other)
chain: RKETYSSYIYKVLKQTHPDTGISQKSMSILNSFVNDIFERIATEASKLAAYNKKSTISAREIQTAVRLILPGELAKHAVSEGTRAVTKYSSSTQAQSRSAKAGLTFPVGRVHRLLRRGNYAQRIGSGAPVYLTAVLEYLAAEILELAGNAARDNKKTRIIPRHLQLAIRNDDELNKLLGNVTIAQGGVLPNI
modifications: Limits and order (H2B then H2A) are taken by homology from scZB in 2JSS/6AE8. The paper's H2B numbers are mature (+1 on precursor) and its H2A numbers are precursor. H2A.1 paralogue assumed.
B2: middle region of Chz1 (Chz1 64-124) (domain or fragment, S. cerevisiae (budding yeast), UniProt P40019 64-124, looked up)
chain: TVEDSESDMDDAKLDALMGNEGEEEEDDLAEIDTSNIITSGRRTRGKVIDYKKTAEELDKK
notes: Chz1, budding yeast, residues 64-124; also called Chz1-M; source: E. coli BL21-CodonPLUS(DE3)-RIPL, purified (Ni-NTA, HiTrap Q)
B3: middle and C-terminal region of Chz1 (Chz1 64-153) (domain or fragment, S. cerevisiae (budding yeast), UniProt P40019 64-153, looked up)
chain: TVEDSESDMDDAKLDALMGNEGEEEEDDLAEIDTSNIITSGRRTRGKVIDYKKTAEELDKKEPSTGSKDDVGYGEKEEDDEDEEDDDFKE
notes: Chz1, budding yeast, residues 64-153; only residues 142-153 are seen in the crystal structure; also called Chz1-MC; Chz1-MC WT; source: E. coli BL21-CodonPLUS(DE3)-RIPL, purified (Ni-NTA, HiTrap Q)
B4: single chain H2A-H2B with H2A NKLGNV→DSIRA (other)
chain: RKETYSSYIYKVLKQTHPDTGISQKSMSILNSFVNDIFERIATEASKLAAYNKKSTISAREIQTAVRLILPGELAKHAVSEGTRAVTKYSSSTQAQSRSAKAGLTFPVGRVHRLLRRGNYAQRIGSGAPVYLTAVLEYLAAEILELAGNAARDNKKTRIIPRHLQLAIRNDDELDSLIRATIAQGGVLPNI
B5: single chain H2A-H2B with H2A P50A (other)
chain: RKETYSSYIYKVLKQTHPDTGISQKSMSILNSFVNDIFERIATEASKLAAYNKKSTISAREIQTAVRLILPGELAKHAVSEGTRAVTKYSSSTQAQSRSAKAGLTFPVGRVHRLLRRGNYAQRIGSGAAVYLTAVLEYLAAEILELAGNAARDNKKTRIIPRHLQLAIRNDDELNKLLGNVTIAQGGVLPNI
B6: single chain H2A-H2B with H2A N91G (other)
chain: MRKETYSSYIYKVLKQTHPDTGISQKSMSILNSFVNDIFERIATEASKLAAYNKKSTISAREIQTAVRLILPGELAKHAVSEGTRAVTKYSSSTQAQSRSAKAGLTFPVGRVHRLLRRGNYAQRIGSGAPVYLTAVLEYLAAEILELAGNAARDNKKTRIIPRHLQLAIRGDDELNKLLGNVTIAQGGVLPNI

How the values were obtained:
Settings in all cases: both partners purified
[1] = molecular target: B2; assay: ITC; 0.2 M NaCl (Table 1); Swc2-Z or Chz1-M injected into single-chain histone dimers; otherwise as the ITC methods (25°C, 20 mM MES pH 6.0)
[2] = molecular target: T1, Swc2-Z, the 1–136 segment of the Swc2 subunit of the SWR1 complex (yeast); assay: as above
T1 construct: SWR complex protein 2 (Swc2), subunit of the yeast SWR1 complex, residues 1-136

[3] = molecular target: B2; assay: ITC; MicroCal VP-ITC, 25°C, 20 mM MES (pH 6.0), 0.5 M NaCl; chaperone (50 or 150 μM) injected into histones (5 μM scZB or 15 μM scAB and mutants) in the cell; one-site fit
[4] = molecular target: B3; assay: as above
[5] = molecular target: B1; assay: ITC; 0.2 M NaCl (Table 1); Swc2-Z or Chz1-M injected into single-chain histone dimers; otherwise as the ITC methods (25°C, 20 mM MES pH 6.0)
[6] = molecular target: B1; assay: ITC; MicroCal VP-ITC, 25°C, 20 mM MES (pH 6.0), 0.5 M NaCl; chaperone (50 or 150 μM) injected into histones (5 μM scZB or 15 μM scAB and mutants) in the cell; one-site fit
[7] = molecular target: B5; assay: as above
[8] = molecular target: B6; assay: as above
[9] = molecular target: B4; assay: as above

Binder: B1
Kd [1]: 300 ± 2 nM
Kd [2]: 200 ± 70 nM
Kd [3]: 7870 ± 350 nM
Kd [4]: 5020 ± 420 nM

Binder: B2
stoichiometry N [5]: 1 sites
stoichiometry N [6]: 0.7 sites

Binder: B3
stoichiometry N [6]: 0.9 sites
stoichiometry N [7]: 1 sites
stoichiometry N [8]: 1 sites
stoichiometry N [9]: 0.9 sites

Binder: B4
Kd [4]: 5080 ± 180 nM

Binder: B5
Kd [4]: 530 ± 40 nM

Binder: B6
Kd [4]: 420 ± 20 nM
